Patent US20240150495A1

Legend:
[1] = target: human ανβ3 integrin (Chemicon) (human) (UniProt P06756); test: ELISA on coated human ανβ3 integrin (1 ug/ml), binder at 10 µg/ml; positive control
[2] = target: human ανβ3 integrin (Chemicon) (human) (UniProt P06756); test: ELISA on coated human ανβ3 integrin (1 ug/ml), binder at 0.002 µg/ml; positive control
[3] = target: human ανβ3 integrin (Chemicon) (human) (UniProt P06756); test: ELISA on coated human ανβ3 integrin (1 ug/ml), binder at 0.010 µg/ml; positive control
[4] = target: human ανβ3 integrin (Chemicon) (human) (UniProt P06756); test: ELISA on coated human ανβ3 integrin (1 ug/ml), binder at 0.039 µg/ml; positive control
[5] = target: human ανβ3 integrin (Chemicon) (human) (UniProt P06756); test: ELISA on coated human ανβ3 integrin (1 ug/ml), binder at 0.156 µg/ml; positive control
[6] = target: human ανβ3 integrin (Chemicon) (human) (UniProt P06756); test: ELISA on coated human ανβ3 integrin (1 ug/ml), binder at 0.625 µg/ml; positive control
[7] = target: human ανβ3 integrin (Chemicon) (human) (UniProt P06756); test: ELISA on coated human ανβ3 integrin (1 ug/ml), binder at 2.500 µg/ml; positive control

Sequence of human ανβ3 integrin (Chemicon) (human) (P06756 31-1048 limits assumed, chain 1 of 2): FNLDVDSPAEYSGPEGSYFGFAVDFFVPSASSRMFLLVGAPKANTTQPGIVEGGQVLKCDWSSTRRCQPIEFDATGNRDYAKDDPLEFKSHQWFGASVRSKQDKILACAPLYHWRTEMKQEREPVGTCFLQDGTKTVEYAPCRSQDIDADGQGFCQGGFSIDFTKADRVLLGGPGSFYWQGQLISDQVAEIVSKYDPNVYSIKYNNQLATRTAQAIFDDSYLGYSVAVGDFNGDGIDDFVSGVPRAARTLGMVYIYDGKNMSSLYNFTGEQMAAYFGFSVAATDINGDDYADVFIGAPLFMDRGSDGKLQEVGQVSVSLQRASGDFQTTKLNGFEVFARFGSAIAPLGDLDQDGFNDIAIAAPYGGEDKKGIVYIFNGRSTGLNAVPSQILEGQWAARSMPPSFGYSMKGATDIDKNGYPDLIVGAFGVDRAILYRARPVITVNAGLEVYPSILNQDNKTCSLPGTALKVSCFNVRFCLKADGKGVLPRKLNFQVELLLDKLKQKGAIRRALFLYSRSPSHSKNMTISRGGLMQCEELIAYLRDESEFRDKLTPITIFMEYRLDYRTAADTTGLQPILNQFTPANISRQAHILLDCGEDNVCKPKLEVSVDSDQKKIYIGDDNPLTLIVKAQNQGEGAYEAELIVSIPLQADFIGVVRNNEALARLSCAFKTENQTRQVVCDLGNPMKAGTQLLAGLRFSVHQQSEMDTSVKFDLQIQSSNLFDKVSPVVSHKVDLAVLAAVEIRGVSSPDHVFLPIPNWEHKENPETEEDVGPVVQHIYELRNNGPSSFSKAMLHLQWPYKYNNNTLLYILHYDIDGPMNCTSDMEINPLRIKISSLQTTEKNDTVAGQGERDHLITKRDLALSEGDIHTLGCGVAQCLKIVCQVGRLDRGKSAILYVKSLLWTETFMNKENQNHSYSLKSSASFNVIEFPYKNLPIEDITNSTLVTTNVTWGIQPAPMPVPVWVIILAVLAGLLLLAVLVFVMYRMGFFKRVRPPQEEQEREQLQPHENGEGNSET
Sequence of human ανβ3 integrin (Chemicon) (human) (P05106 27-788 limits assumed, chain 2 of 2, further chain): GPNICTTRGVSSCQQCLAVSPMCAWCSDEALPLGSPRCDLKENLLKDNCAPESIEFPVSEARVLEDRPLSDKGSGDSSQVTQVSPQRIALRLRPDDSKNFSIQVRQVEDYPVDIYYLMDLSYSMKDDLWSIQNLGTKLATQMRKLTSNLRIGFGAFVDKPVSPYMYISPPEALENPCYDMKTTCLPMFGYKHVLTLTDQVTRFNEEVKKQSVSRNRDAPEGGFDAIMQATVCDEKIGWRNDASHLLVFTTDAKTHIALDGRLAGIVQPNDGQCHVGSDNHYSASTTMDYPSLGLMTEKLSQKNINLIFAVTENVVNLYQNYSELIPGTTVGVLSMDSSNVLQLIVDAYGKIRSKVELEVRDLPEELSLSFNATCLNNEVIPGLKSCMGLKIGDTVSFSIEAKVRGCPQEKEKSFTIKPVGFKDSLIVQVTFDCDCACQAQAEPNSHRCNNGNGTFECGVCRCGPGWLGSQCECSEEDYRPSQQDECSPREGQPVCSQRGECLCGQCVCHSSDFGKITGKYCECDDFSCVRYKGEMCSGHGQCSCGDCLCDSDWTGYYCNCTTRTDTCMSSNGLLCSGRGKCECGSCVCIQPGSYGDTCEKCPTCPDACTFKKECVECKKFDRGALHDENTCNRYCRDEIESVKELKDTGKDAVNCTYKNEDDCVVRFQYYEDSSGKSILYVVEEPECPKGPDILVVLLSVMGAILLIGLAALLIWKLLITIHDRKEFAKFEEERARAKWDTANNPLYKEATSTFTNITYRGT

- OD 450 [1]: 0.647 OD 450
- OD 450 [2]: 0.077 OD 450
- OD 450 [3]: 0.157 OD 450
- OD 450 [4]: 0.391 OD 450
- OD 450 [5]: 0.626 OD 450
- OD 450 [6]: 0.657 OD 450
- OD 450 [7]: 0.644 OD 450
Substance: commercial mouse anti human ανβ3 integrin mAb LM609 (Chemicon) (antibody)
